Measured values published in patent US20150086555A1 (THERACLONE SCIENCES, published 2015).
Residue numbers refer to the chain shown, from its start.

B1: TCN-526 (5084_C17) (antibody, V domains shown)
VH: EVLMVESGGGLVQPGGSVRLSCVASGFSFSSHWMTWVRQAPGKGLEWVANIEDDGGDKYYVDSVKGRFIISRDNAKNSVYLQMNSLRAEDTAVYFCARGSGSSDRSDYDPHYYYYLDVWGKGATVTVSS
VL: DIQLTQSPSSLSASVGDRVTITCRASQSISRYLNWYQQKPGKAPKLLLFAASTLLDGVPSRFSGSGSGTDFTLTISSLQPEDFATYYCQRNHSPSWTFGQGTRVEIK
B2: TCN-528 (5087_P17) (antibody, V domains shown)
VH: QVQLVQSGSEVKKPGASVKVSCKASGYTFTNYDINWIRQAPGQGLEWMGWINPNSGTTGSAQRFQGRVTITVDTSITTVYMELSSLRSDDTAIYYCARGRELLRLQHFLTDSQSERRDCFDPWGQGTLVTVSS
VL: DIQMTQSPSSLSASVGDRVTITCRANQDIGIYLNWYQQNPGKVPKLLLHGASSLQGGVPSRFSASGSGTDFTLTIHSLQPEDLATYYCQQSRRLPYTFGQGTRVELK
B3: TCN-521 (3280_D18) (antibody, V domains shown)
VH: EVQLVQSGGGLVQPGGSLRLACVVSGFTVTSNYITWVRQAPGKGLEWVSVIYSHGRAYYSASVNGRFTISRHTSKNTVYLEMNSLRPEDTAVYYCAGGGLVGGYDEYFFDYWGQGTLATVSS
VL: ETVLTQSPGTLSLTPGERATLSCRVGQSVSGSHLAWYQQKPGQAPRLLIYGASSRATGIPDRFGGSVSGTDFTLTISRLEPEDSAVYYCQQYGDSRYTFGQGTKLEIK
B4: TCN-527 (5086_C06) (antibody, V domains shown)
VH: QVQLQESGPGLVKPSETLSLNCAVSGGSISNYYWSWIRQPPGKGLEWIGYISYNGRPKYNPSLTSRVTISVDTSKDQFSLELRSVTAADTALYYCARETRFGELLSPYDAFEIWGQGTMVTVSS
VL: DIQMTQSPSSLSASVGDRVTMTCRASQNIRSYLNWYQQRPGTAPKLLIYAASTLHSGVPSRFSGGGSGTDFTLTINNLQPEDFASYYCQQSYDNPQTFGQGTKVEIK
B5: TCN-555 (5246_L16) (antibody, V domains shown)
VH: QVQLVQSGAEVKRPGSSVKVSCTASGGIFRKNAISWVRQAPGQGLEWMGGIIAVFNTANYAQKFQNRVKITADESGNTAYMELSSLTSDDTAVYYCASHPKYFYGSGSYPDFWGQGTLVTVSS
VL: QSALTQPRSVSGSPGQSITISCTGGSSDIGASNSVSWYQQHPGKAPKLVIFDVTERPSGVPHRFSGSKSGNTASLTVSGLQPDDEADYFCCAYGGKYLVVFGGGTKVTVL
B6: TCN-563 (5237_B21) (antibody, V domains shown)
VH: B5 VH with V5A, N66G, T87R
VL: B5 VL with I18V, G25S, I29V, F51Y, D83E
B7: TCN-564 (5256_A17b) (antibody, V domains shown)
VH: QVQLVQSGADVKKPGSSVTVSCKASGGSFSNYGINWVRQAPGQGLEWMGGIIPLINAPNYAPKFQGRVTITADMFSNIVSLQLTSLRTDDTAVYYCARRKMTTAIDYWGQGTLVTVSS
VL: QPVLSQPPSASASLGASVTLTCTLSSGFDNYQVAWYQQRPGKGPRFVMRVGNGGNVASKGDGIPDRFSVSGSGLNRYLTIKNIQEDDESDYYCGADHGSGNNFVSPYVFGGGTKLTVL
B8: TCN-560 (5084_P10) (antibody, V domains shown)
VH: EVQLVESGGGLVQPGGSLRLSCAASGFIFRNYWMSWVRQAPGKGLEWVANIKQDGREKYYVDSLRGRVNISRDNAENSLYLHMNSLRVEDTAVYFCARARMVVVTGDGFDVWGHGTMVTVSS
VL: DIQMTQSPSSLSASVGDRVTITCRASQNIKRYFNWYQQKPGKAPKLLIYAASNLENGVPSRFSGSGSGTDFTLTISSLQPEDFATYYCQQSFSKSWTFGQGTNVDIK
B9: TCN-530 (5248_H10a) (antibody, V domains shown)
VH: QVQLVQSGAEVRKPGSSVKVSCKASGGPFMSYAIGWVRQAPGQGLEWMGGINPVFGRPHYAQKFQGRVTIATDDSTKTSYMELSSLTSEDTGMYYCASRYSRSSPGTFESWGQGTLVTVSS
VL: EIVMTQFPATLSVSPGERVTLSCRASQSVSNNLAWYQQKPGQPPRLLIYDASTRATGVPAKFSGTGSGTEFTLSISSLQSEDFAVYYCQQYHNWPPSYSFGLGTKLEIK

What follows are binders tested against hemagglutinin (HA) of influenza A/Japan/305/57 (H2N2) on whole virions (Influenza A virus A/Japan/305/1957(H2N2), UniProt P03451 16-562) (assay: ELISA; BCC supernatant on coated inactivated whole virions).

Q: Which “ELISA virus binding (OD450)” value does the source give for B1 here?
A: 0.07 OD450

Q: B2 was tested. Which “ELISA virus binding (OD450)” value did it give?
A: 2.82 OD450

Q: With B3 as the binder, how does the “ELISA virus binding (OD450)” value read?
A: 3.1 OD450

Q: B4 was tested. Which “ELISA virus binding (OD450)” value did it give?
A: 1.48 OD450

Q: B5 was tested. Which “ELISA virus binding (OD450)” value did it give?
A: 0.6 OD450

Q: Which “ELISA virus binding (OD450)” value does the source give for B6 here?
A: 1.23 OD450

Q: How did the “ELISA virus binding (OD450)” value turn out when B7 was run?
A: 1.1 OD450

Q: Which “ELISA virus binding (OD450)” value does the source give for B8 here?
A: 2.07 OD450

Q: Which “ELISA virus binding (OD450)” value does the source give for B9 here?
A: 1.73 OD450
